Test results reported in patent publication US20030220254A1, “Composition and method for preparation of an oral dual controlled release formulation of a protein and inhibitor” (TEXAS TECH UNIVERSITY SYSTEM, priority 2002, published 2003).
Read-outs that look alike come from different tables or passages of the source. Each block holds one compound with its values, some of them ahead of it.

Assays:
α-chymotrypsin [1] = target: T1, α-chymotrypsin (Bos taurus, UniProt P00766); experiment: α-chymotrypsin mediated degradation of insulin with inhibitors (HPLC); type: biochemical
Protocol: (§1) Stability studies in the presence of chicken and duck ovomucoid were conducted. […] The degradation profiles were generated in the presence of 0.1 μM α-chymotrypsin and 0.5 μM trypsin over a period of 60 minutes that served as controls. These concentrations were selected based on a reported study (Schilling & Mitra 1991).
(§2) Samples were taken at 0, 5, 15, 30 and 60 minutes and immediately diluted with cold 1% TFA/TRIS to reduce the pH to 2.5. The samples were analyzed at 4° C. by a reverse-phase HPLC method using a Varian Chromatography Workstation. […] Similar studies were performed with aprotinin.
The protocol used was the same as above with minor modifications. […] The degradation profiles were generated in the presence of α-chymotrypsin and DkOVM. The enzyme to inhibitor ratio used was 1:1 with respect to α-chymotrypsin.

trypsin [2] = target: T2, trypsin (Bos taurus, UniProt P00760); experiment: trypsin mediated degradation of insulin with inhibitors (HPLC); type: biochemical; conditions: trypsin 0.5 μM
T2 construct: gene PRSS1
T2 sequence (P00760 24-246): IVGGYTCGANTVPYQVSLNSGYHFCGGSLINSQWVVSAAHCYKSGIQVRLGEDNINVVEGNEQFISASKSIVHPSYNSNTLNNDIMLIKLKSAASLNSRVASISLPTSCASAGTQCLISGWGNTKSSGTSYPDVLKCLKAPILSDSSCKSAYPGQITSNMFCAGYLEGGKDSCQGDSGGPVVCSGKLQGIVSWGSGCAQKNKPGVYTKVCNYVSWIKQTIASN
Protocol: as §1
as §2, with “Workstation. Plots of insulin remaining versus time were generated.” for “Workstation.”

α-chymotrypsin [3] = target: T1, α-chymotrypsin; experiment: Stability of sCT in the presence of α-chymotrypsin and protease inhibitors; type: biochemical
Protocol: (§3) sCT solutions (50 μM) were incubated at 37° C. in 50 mM Tris buffer containing 0.1 mM calcium chloride (pH 8.0). Degradation profiles generated in the presence of 0.5 μM trypsin and 0.1 μM α-chymotrypsin served as controls. The concentrations were selected on the basis of a reported study (Schilling R. J. and Mitra A. K. 1991). DkOVM and TkOVM were evaluated at different enzyme-to-inhibitor ratios to evaluate their inhibition of sCT degradation. CkOVM and aprotinin were used at 1:1 enzyme-to-inhibitor ratio in order to compare the efficacy of various protease inhibitors used. sCT and enzyme solutions were incubated for 15 min at 37° C. before starting the experiments. Samples were taken after 0, 5, 15, 30 and 60 min and immediately diluted with cold 1% trifluoroacetic acid (TFA) to reduce the pH to 2.5. The samples were analysed at 4° C. by HPLC given below. Plots of sCT remaining against time were generated. […] (amount of sCT (%) remaining after 60 min) were used to compare the efficacy of the ovomucoids. Similar studies were performed with aprotinin. The study was also conducted by incubating 50 μM sCT solutions with 0.5 μM trypsin and 0.1 μM α-chymotrypsin added together and the efficacy of TkOVM was evaluated at various ratios.
(§4) sCT was analyzed by means of our validated HPLC method (Shah R B, et al., 2003). Briefly, a computer controlled Varian Chromatography workstation consisting of the following components was used: Two Dynamax SD-200 pumps, an AI-200A autosampler fitted with a 100 μl injection loop, a Dynamax UV-1 detector and Star 5.3 chromatography software. Room temperature was maintained for the column and chromatographic separations were carried out on a C-18 Vydac 218MS54 column (5 μm, 4.6×250 mm) with a pore size of 300 Å. 50 μl of samples were injected into the column which were analyzed by the reversed phase HPLC method. The mobile phase consisted of 0.05% v/v TFA-Water (A) and 0.05% v/v TFA-Acetonitrile (B). The gradient conditions were 20-35% B for 10 min, 35-37% B from 10th to 20th min and 37-20% B from 20th to 25th min at a flow rate of 1 ml/min. […] Concentrations of sCT were quantified from integrated peak areas and calculated by interpolation from an according standard curve.

trypsin [4] = target: T2, trypsin; experiment: Stability of sCT in the presence of trypsin and protease inhibitors; type: biochemical
Protocol: as §3, §4

rat jejunum = experiment: in vitro
Text: (§5) Male Sprague Dawley rats weighing between 200-300 g were used for the permeability experiments. The intestine was excised and the jejunum was isolated by a reported method (Asada et al. 1995). Briefly, the duodenal and ileal segments were removed from top and bottom (13 cm on either side) and the residual intestine was designated as jejunum. The respective segments were mounted in a Navicyte Side-By-Side diffusion apparatus with accessories such as water circulator, flowmeter and humidifier.
(§6) The segments were mounted without stripping on a preheated acrylic half-cell and the cell assembly was then placed in a heated block after joining the other half-cell. The exposed surface area was 1.78 cm^2 and the reservoir volume was 6 mL. The donor and receiver compartments were immediately filled with pre-warmed oxygenated Krebs bicarbonate buffer adjusted to pH 7.4 with NaOH or HCl. The composition of buffer used is shown in Table 11, which illustrates the composition of stock solutions used for preparation of Krebs Bicarbonate solution. The stock solutions can be made in 100 mL or 1 L volume and stored in a refrigerator for one month. For preparation of working buffer, 50 mL of each stock solution above is added to a 1 L volumetric flask containing 750 mL of water. The pH was adjusted to 7.4 when necessary. […]
(§7) For the marker studies, the concentration of ^14C mannitol in donor compartment was 3.5×10^−5 μM and that of H testosterone was 4×10^−2 μM. The integrity of the tissues was determined by calculating the permeability coefficient (Papp) of mannitol. […] Aliquots of 10 μL were taken from the mucosal side at the beginning and end of the experiment and analyzed by a HPLC method discussed later. […] The radioactive samples were analyzed by using a liquid scintillation counter.
(§8) The results of experiments performed at least in triplicate are presented as mean±SE. Statistical differences between permeability in the presence of DkOVM and CkOVM and the means were determined by one-way analysis of variance (ANOVA). […]

in vitro = conditions: male, Sprague Dawley, rat, pH 7.4
Text: as §5, §6, §7, §8

[5] = cited from earlier work
α-chymotrypsin [6] = target: T1, α-chymotrypsin; experiment: Insulin stability in Krebs bicarbonate buffer with α-chymotrypsin and DkOVM over 3 hours; type: biochemical; conditions: absence of DkOVM
Protocol: The degradation profiles were generated in the presence of 0.5 μM α-chymotrypsin over a period of 3 hours that served as controls. […] Samples were taken up to 180 min and immediately diluted with cold 1% TFA/TRIS to reduce the pH to 2.5. The samples were analyzed by the RP-HPLC method reported earlier.

rat GIT segments [7] = conditions: cited from earlier work; for Papp × 10^7 cm/sec of insulin: Rat, Ussing technique
[8] = in vivo; cited from earlier work
rat GIT segments [9] = conditions: cited from earlier work; for Papp × 10^7 cm/sec of insulin: Rat, Everted gut sac
apical epithelium = conditions: Stoll et al. 2000; cited from earlier work
rat intestinal segments = experiment: Insulin transport across rat intestinal segments (side-by-side diffusion apparatus)
Text: as §5
The segments were mounted without stripping on a preheated acrylic half-cell and the cell assembly was then placed in a heated block after joining the other half-cell. The exposed surface area was 1.78 cm^2 and the reservoir volume was 6 mL. The donor and receiver compartments were immediately filled with pre-warmed oxygenated Krebs bicarbonate buffer adjusted to pH 7.4 with NaOH or HCl. The composition of buffer used is shown in Table 11, which illustrates the composition of stock solutions used for preparation of Krebs Bicarbonate solution. The stock solutions can be made in 100 mL or 1 L volume and stored in a refrigerator for one month. For preparation of working buffer, 50 mL of each stock solution above is added to a 1 L volumetric flask containing 750 mL of water. The pH was adjusted to 7.4 when necessary.
The mucosal buffer consisted of 40 mM mannitol and the serosal buffer consisted of 40 mM glucose. […] Mannitol equalizes the osmotic load between the mucosal and […] buffers and glucose helps to maintain tissue viability. The buffer was circulated by a gas lift (95%O2/5%CO2). The flow rate of gas lift was adjusted to 10±2 mL/min using a flow meter. The tissues were equilibrated for 10 min before the drug solution was added.
For the marker studies, the concentration of ^14C mannitol in donor compartment was 3.5×10^−5 μM and that of H testosterone was 4×10^−2 μM. The integrity of the tissues was determined by calculating the permeability coefficient (Papp) of mannitol. For α-chymotrypsin studies, the enzyme was added immediately after the addition of drug and inhibitor solution to achieve a final concentration of 0.5 μM. Samples (1 mL) were taken from the serosal side at various times up to 180 min and replaced with fresh transport medium. Aliquots of 10 μL were taken from the mucosal side at the beginning and end of the experiment and analyzed by a HPLC method discussed later. […] The radioactive samples were analyzed by using a liquid scintillation counter.
as §8

[10] = chymotrypsin 0.1 μM, enzyme:inhibitor 1:1

Compound: O=C(O)CN(CCN(CC(=O)O)CC(=O)O)CC(=O)O [EDTA]
% I60 min (insulin remaining at 60 minutes) (α-chymotrypsin [1]; chymotrypsin + 0.5 mM EDTA, no inhibitor): 0.32 ± 0.33%

Compound: Aprotinin
% I60 min (insulin remaining at 60 minutes) (trypsin [2]; enzyme:inhibitor 1:1): 97.99 ± 0.08%
% I60 min (insulin remaining at 60 minutes) (α-chymotrypsin [1]; [10]): 69.65 ± 6.04%
Amount (%) of sCT remaining at 60 min (I60) (α-chymotrypsin [3]; [10]): 35.87 ± 1.06%
Ratio (half-life versus α-chymotrypsin alone) (α-chymotrypsin [3]; α-chymotrypsin:inhibitor 1:1): 1.82
Amount (%) of sCT remaining at 60 min (I60) (trypsin [4]; trypsin 0.5 μM, enzyme:inhibitor 1:1): 83.36 ± 8.92%
Ratio (half-life versus trypsin alone) (trypsin [4]; trypsin:inhibitor 1:1): 199.34

Compound: insulin
peak time ([5]; pulmonary route): 5 to 60 min
peak time ([5]; subcutaneous route): 6 to 150 min
insulin (%) remaining at the end of 3 hours (α-chymotrypsin [6]): negligible
reported Papp of insulin from rat jejunum (rat GIT segments [7]; Asada et al. 1995): 12.27±1.73 ×10^−7 cm/sec
Papp × 10^7 cm/sec of insulin (rat GIT segments [7]; Colon): 4.05 ± 1.09 × 10^7 cm/sec
Papp × 10^7 cm/sec of insulin (rat GIT segments [7]; Duodenum): 4.85 ± 0.99 × 10^7 cm/sec
Papp × 10^7 cm/sec of insulin (rat GIT segments [7]; Jejunum): 12.27 ± 1.73 × 10^7 cm/sec
% I60 min (insulin remaining at 60 minutes) (trypsin [2]; no inhibitor): 68.79 ± 1.85%
% I60 min (insulin remaining at 60 minutes) (α-chymotrypsin [1]; insulin 18 μM alone, no enzyme): 100%
insulin degraded in 60 minutes (α-chymotrypsin [1]; α-chymotrypsin, control without inhibitor): more than 90%
insulin reaching the liver via the portal vein that undergoes degradation [8]: About 50%
Papp × 10^7 cm/sec of insulin (rat GIT segments [9]; Duodenum): 0.78 ± 0.54 × 10^7 cm/sec
Papp × 10^7 cm/sec of insulin (rat GIT segments [9]; Ileum): 1.54 ± 0.29 × 10^7 cm/sec
Papp × 10^7 cm/sec of insulin (rat GIT segments [9]; Jejunum): 1.385 ± 0.265 × 10^7 cm/sec
reported Papp of insulin from rat jejunum (rat GIT segments [9]; Schilling & Mitra 1990): 5±2 ×10^−7 cm/sec
apical epithelial permeability of insulin (apical epithelium): 0.032 ×10⁻⁶ cm/s
cumulative amount of insulin permeated at the end of three hours (rat intestinal segments; jejunum): 0.04±0.023 IU
Permeability of insulin (P × 10^7 cm/sec) (rat intestinal segments; rat jejunum, insulin 100 μM + α-chymotrypsin 0.5 μM + DkOVM 0.0 μM): 0.0 × 10^7 cm/sec
Permeability of insulin (P × 10^7 cm/sec) (rat intestinal segments; rat jejunum, insulin 100 μM alone): 0.922 ± 0.168 × 10^7 cm/sec
Papp of insulin (rat intestinal segments; rat jejunum, insulin alone): 0.922±0.168 ×10^−7 cm/sec

Next, values leading:

% I60 min (insulin remaining at 60 minutes) (α-chymotrypsin [1]; chymotrypsin + 30 mM NaGC, no inhibitor): 4.66 ± 0.8%
Compound: C[C@H](CCC(=O)NCC(=O)[O-])[C@H]1CC[C@H]2[C@@H]3[C@H](O)C[C@@H]4C[C@H](O)CC[C@]4(C)[C@H]3C[C@H](O)[C@]12C.[Na+] [NaGC, sodium glycocholate]

^14C Mannitol Permeability × 10^6 cm/sec (rat jejunum): 3.465 ± 0.251 × 10^6 cm/sec
^14C Mannitol Ratio (rat jejunum; male, Sprague Dawley, rat, 180 min, pH 7.4): 1.0
Papp at 180 min (in vitro): 3.46 ± 0.251 ×10⁻⁶ cm/s
Compound: OC[C@@H](O)[C@@H](O)[C@H](O)[C@H](O)CO [^14C Mannitol, D-[1-^14C] mannitol]
